Test results reported in paper PMC12532918.

Target: T1, CXCR4-CFP / CXCR4-YFP (human), P61073
T1 chain: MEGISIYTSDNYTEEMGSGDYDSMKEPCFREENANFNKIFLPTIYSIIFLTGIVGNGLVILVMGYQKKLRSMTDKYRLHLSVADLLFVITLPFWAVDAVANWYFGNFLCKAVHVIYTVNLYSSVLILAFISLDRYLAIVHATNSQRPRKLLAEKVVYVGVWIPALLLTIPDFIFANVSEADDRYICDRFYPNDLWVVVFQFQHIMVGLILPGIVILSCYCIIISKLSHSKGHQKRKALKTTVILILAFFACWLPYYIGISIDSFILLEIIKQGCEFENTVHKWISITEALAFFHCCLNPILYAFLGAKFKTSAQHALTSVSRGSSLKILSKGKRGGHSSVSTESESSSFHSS
Experiment: FRET or BRET; FLIM (CFP donor lifetime) in live HEK-293T cells transfected with CXCR4-YFP/CXCR4-CFP or 5HTR2B-YFP/CXCR4-CFP (15 µg : 9 µg); CXCR4-CFP alone as reference; untreated or ChOx (25 U/mL, 2 h, 37 °C); without or with CXCL12 (100 nM, 30 min)
Conditions: remark: other sources report otherwise

CFP donor lifetime (CFPτ), ChOx-treated cells (2.03 ns for CXCR4-CFP alone): 1.82 ns | CFP donor lifetime (CFPτ), ChOx-treated cells with CXCL12: 1.75 ns | CFP donor lifetime (CFPτ), untreated cells (2.03 ns for CXCR4-CFP alone): 1.7 ns | CFP donor lifetime (CFPτ), untreated cells with CXCL12: 1.61 ns
B1: CXCR4-CFP / CXCR4-YFP, P61073 1-352 (receptor)
chain: T1 chain
